Test results from patent US20230045262A1 (Hoffmann-La Roche, published 2023).
Read-outs that look alike come from different tables or passages of the source.

Columns and labels:
[1] = molecular target: T1, human 4-1BB on cells (activated human T cells; HeLa-hu4-1BB-NFκB-luc clone 26; Jurkat-hu4-1BB-NFκB-luc2) (human, UniProt Q07011 24-255); test: flow cytometry on activated human CD8+ T cells, PE anti-human Fc secondary
T1 construct: also called CD137; cell-expressed 4-1BB

[2] = molecular target: T1, human 4-1BB on cells (activated human T …); test: cell-based or functional assay
[3] = molecular target: T2, hu4-1BB-SNAP fusion on Hek293 EBNA cells (human, UniProt Q07011 24-255, labeled with the FRET donor Terbium); test: TagLite FRET competition on hu4-1BB-SNAP cells; competitor 0.6 nM d2-labelled 20H4.9 IgG; 4 h
T2 construct: also called hu 4-1BB (TagLite); not shown: SNAP tag

[4] = molecular target: T3, human FAP on cells (WM-266-4; NIH/3T3-huFAP clone 19) (human, UniProt Q12884 1-760); test: flow cytometry on NIH/3T3-huFAP clone 19 cells
T3 construct: transfected in NIH/3T3-huFAP clone 19

[5] = molecular target: T1, human 4-1BB on cells (activated human T …); test: cell-based or functional assay; remark: listed apart in the source
[6] = molecular target: T3, human FAP on cells (WM-266-4; …); test: flow cytometry on WM-266-4 cells
[7] = molecular target: T1, human 4-1BB on cells (activated human T …); test: flow cytometry on activated human CD4+ T cells, PE anti-human Fc secondary
[8] = molecular target: T1, human 4-1BB on cells (activated human T …); test: flow cytometry on Jurkat-hu4-1BB-NFκB-luc2 cells
[9] = molecular target: T1, human 4-1BB on cells (activated human T …); test: cell-based or functional assay; remark: listed apart in the source
[10] = molecular target: T2, hu4-1BB-SNAP fusion on Hek293 EBNA cells; test: TagLite FRET competition on hu4-1BB-SNAP cells; competitor 0.6 nM d2-labelled 20H4.9 IgG; 4 h; remark: listed apart in the source

Binder	EC50 [1]	EC50 of activation of the NFκB signaling pathway (luciferase, HeLa-hu4-1BB-NFκB-luc), no FAP+ cells [2]	EC50 of activation of the NFκB signaling pathway (luciferase, HeLa-hu4-1BB-NFκB-luc), with 3T3-huFAP cells [2]	EC50 of activation of the NFκB signaling pathway (luciferase, HeLa-hu4-1BB-NFκB-luc), with WM-266-4 cells [2]	EC50 [3]	EC50 interval [3]	EC50 [4]	EC50 of human PBMC activation curves, % CD25+ CD4 (with NIH/3T3-huFAP cells and anti-CD3) [5]	EC50 of human PBMC activation curves, % CD25+ CD8 (with NIH/3T3-huFAP cells and anti-CD3) [5]	EC50 of human PBMC activation curves, % proliferating CD4 (with NIH/3T3-huFAP cells and anti-CD3) [5]	EC50 of human PBMC activation curves, % proliferating CD8 (with NIH/3T3-huFAP cells and anti-CD3) [5]	EC50 [6]	EC50 [7]	EC50 [8]	EC50 of Jurkat-hu4-1BB-NFκB-luc2 reporter cell line activation curves in the presence of CEA-expressing MKN45 tumor cells [9]	EC50 [10]	EC50 interval [10]
4-1BB (20H4.9)/FAP (4B9) P329GLALA IgG1 2+1 (hole-VH) (bispecific antibody, also called 4-1BB (20H4.9)×FAP (4B9) 2+1; 20H4.9/4B9 2+1) heavy 1: QVQLQQWGAGLLKPSETLSLTCAVYGGSFSGYYWSWIRQSPEKGLEWIGEINHGGYVTYNPSLESRVTISVDTSKNQFSLKLSSVTAADTAVYYCARDYGPGNYDWYFDLWGRGTLVTVSSASTKGPSVFPLAPSSKSTSGGTAALGCLVKDYFPEPVTVSWNSGALTSGVHTFPAVLQSSGLYSLSSVVTVPSSSLGTQTYICNVNHKPSNTKVDKKVEPKSCDKTHTCPPCPAPEAAGGPSVFLFPPKPKDTLMISRTPEVTCVVVDVSHEDPEVKFNWYVDGVEVHNAKTKPREEQYNSTYRVVSVLTVLHQDWLNGKEYKCKVSNKALGAPIEKTISKAKGQPREPQVCTLPPSRDELTKNQVSLSCAVKGFYPSDIAVEWESNGQPENNYKTTPPVLDSDGSFFLVSKLTVDKSRWQQGNVFSCSVMHEALHNHYTQKSLSLSPGGGGGSGGGGSGGGGSGGGGSEVQLLESGGGLVQPGGSLRLSCAASGFTFSSYAMSWVRQAPGKGLEWVSAIIGSGASTYYADSVKGRFTISRDNSKNTLYLQMNSLRAEDTAVYYCAKGWFGGFNYWGQGTLVTVSS heavy 2: not shown light: not shown	0.1 nM	0.73 nM	0.07 nM	0.08 nM	1.6 nM	1.2 to 2.3 nM	1.7 nM	0.005 nM	0.02 nM	0.004 nM	0.001 nM	0.7 nM	0.1 nM	–	–	–	–
2+1 4-1BB (20H4.9)/CEA(A5B7P) human IgG1 PGLALA, (G4S)4, hole-VH (bispecific antibody, also called 4-1BB (20H4.9)×CEA (A5B7P) 2+1; C-terminal VH/VL fusion of the A5B7P clone) heavy 1: QVQLQQWGAGLLKPSETLSLTCAVYGGSFSGYYWSWIRQSPEKGLEWIGEINHGGYVTYNPSLESRVTISVDTSKNQFSLKLSSVTAADTAVYYCARDYGPGNYDWYFDLWGRGTLVTVSSASTKGPSVFPLAPSSKSTSGGTAALGCLVKDYFPEPVTVSWNSGALTSGVHTFPAVLQSSGLYSLSSVVTVPSSSLGTQTYICNVNHKPSNTKVDKKVEPKSCDKTHTCPPCPAPEAAGGPSVFLFPPKPKDTLMISRTPEVTCVVVDVSHEDPEVKFNWYVDGVEVHNAKTKPREEQYNSTYRVVSVLTVLHQDWLNGKEYKCKVSNKALGAPIEKTISKAKGQPREPQVCTLPPSRDELTKNQVSLSCAVKGFYPSDIAVEWESNGQPENNYKTTPPVLDSDGSFFLVSKLTVDKSRWQQGNVFSCSVMHEALHNHYTQKSLSLSPGGGGGSGGGGSGGGGSGGGGSEVKLVESGGGLVQPGGSLRLSCATSGFTFTDYYMNWVRQPPGKALEWLGFIGNKANGYTTEYSASVKGRFTISRDKSQSILYLQMNTLRAEDSATYYCTRDRGLRFYFDYWGQGTTLTVSS heavy 2: not shown light: not shown	–	–	–	–	–	–	–	–	–	–	–	–	–	0.06 nM	0.16 nM	–	–
2+1 4-1BB (20H4.9)/CEA(T84.66-LCHA) human IgG1 PGLALA, (G4S)4 hole-VH (bispecific antibody, also called 4-1BB (20H4.9)×CEA (T84.66-LCHA) 2+1) heavy 1: QVQLQQWGAGLLKPSETLSLTCAVYGGSFSGYYWSWIRQSPEKGLEWIGEINHGGYVTYNPSLESRVTISVDTSKNQFSLKLSSVTAADTAVYYCARDYGPGNYDWYFDLWGRGTLVTVSSASTKGPSVFPLAPSSKSTSGGTAALGCLVKDYFPEPVTVSWNSGALTSGVHTFPAVLQSSGLYSLSSVVTVPSSSLGTQTYICNVNHKPSNTKVDKKVEPKSCDKTHTCPPCPAPEAAGGPSVFLFPPKPKDTLMISRTPEVTCVVVDVSHEDPEVKFNWYVDGVEVHNAKTKPREEQYNSTYRVVSVLTVLHQDWLNGKEYKCKVSNKALGAPIEKTISKAKGQPREPQVCTLPPSRDELTKNQVSLSCAVKGFYPSDIAVEWESNGQPENNYKTTPPVLDSDGSFFLVSKLTVDKSRWQQGNVFSCSVMHEALHNHYTQKSLSLSPGGGGGSGGGGSGGGGSGGGGSQVQLVQSGAEVKKPGSSVKVSCKASGFNIKDTYMHWVRQAPGQGLEWMGRIDPANGNSKYVPKFQGRVTITADTSTSTAYMELSSLRSEDTAVYYCAPFGYYVSDYAMAYWGQGTLVTVSS heavy 2: not shown light: not shown	–	–	–	–	–	–	–	–	–	–	–	–	–	0.07 nM	0.19 nM	–	–
2+1 4-1BB (20H4.9)/CEA(A5B7P) human IgG1 PGLALA, CEA with CHCL crossfab (bispecific antibody, also called 4-1BB (20H4.9)×CEA (A5B7P) 2+1 CHCL crossfab; knob-CHCL crossfab) heavy 1: not shown heavy 2: QVQLQQWGAGLLKPSETLSLTCAVYGGSFSGYYWSWIRQSPEKGLEWIGEINHGGYVTYNPSLESRVTISVDTSKNQFSLKLSSVTAADTAVYYCARDYGPGNYDWYFDLWGRGTLVTVSSASTKGPSVFPLAPSSKSTSGGTAALGCLVEDYFPEPVTVSWNSGALTSGVHTFPAVLQSSGLYSLSSVVTVPSSSLGTQTYICNVNHKPSNTKVDEKVEPKSCDKTHTCPPCPAPEAAGGPSVFLFPPKPKDTLMISRTPEVTCVVVDVSHEDPEVKFNWYVDGVEVHNAKTKPREEQYNSTYRVVSVLTVLHQDWLNGKEYKCKVSNKALGAPIEKTISKAKGQPREPQVCTLPPSRDELTKNQVSLSCAVKGFYPSDIAVEWESNGQPENNYKTTPPVLDSDGSFFLVSKLTVDKSRWQQGNVFSCSVMHEALHNHYTQKSLSLSPGK light 1: not shown light 2: QTVLSQSPAILSASPGEKVTMTCRASSSVTYIHWYQQKPGSSPKSWIYATSNLASGVPARFSGSGSGTSYSLTISRVEAEDAATYYCQHWSSKPPTFGGGTKLEIKSSASTKGPSVFPLAPSSKSTSGGTAALGCLVKDYFPEPVTVSWNSGALTSGVHTFPAVLQSSGLYSLSSVVTVPSSSLGTQTYICNVNHKPSNTKVDKKVEPKSC	–	–	–	–	–	–	–	–	–	–	–	–	–	0.06 nM	0.09 nM	–	–
4-1BB (20H4.9)/FAP (4B9) P329GLALA IgG1 4+1 (hole-VH) (bispecific antibody, also called 4-1BB (20H4.9)×FAP (4B9) 4+1; 20H4.9/4B9 4+1) heavy 1: QVQLQQWGAGLLKPSETLSLTCAVYGGSFSGYYWSWIRQSPEKGLEWIGEINHGGYVTYNPSLESRVTISVDTSKNQFSLKLSSVTAADTAVYYCARDYGPGNYDWYFDLWGRGTLVTVSSASTKGPSVFPLAPSSKSTSGGTAALGCLVKDYFPEPVTVSWNSGALTSGVHTFPAVLQSSGLYSLSSVVTVPSSSLGTQTYICNVNHKPSNTKVDKKVEPKSCDGGGGSGGGGSQVQLQQWGAGLLKPSETLSLTCAVYGGSFSGYYWSWIRQSPEKGLEWIGEINHGGYVTYNPSLESRVTISVDTSKNQFSLKLSSVTAADTAVYYCARDYGPGNYDWYFDLWGRGTLVTVSSASTKGPSVFPLAPSSKSTSGGTAALGCLVKDYFPEPVTVSWNSGALTSGVHTFPAVLQSSGLYSLSSVVTVPSSSLGTQTYICNVNHKPSNTKVDKKVEPKSCDKTHTCPPCPAPEAAGGPSVFLFPPKPKDTLMISRTPEVTCVVVDVSHEDPEVKFNWYVDGVEVHNAKTKPREEQYNSTYRVVSVLTVLHQDWLNGKEYKCKVSNKALGAPIEKTISKAKGQPREPQVCTLPPSRDELTKNQVSLSCAVKGFYPSDIAVEWESNGQPENNYKTTPPVLDSDGSFFLVSKLTVDKSRWQQGNVFSCSVMHEALHNHYTQKSLSLSPGGGGGSGGGGSGGGGSGGGGSEVQLLESGGGLVQPGGSLRLSCAASGFTFSSYAMSWVRQAPGKGLEWVSAIIGSGASTYYADSVKGRFTISRDNSKNTLYLQMNSLRAEDTAVYYCAKGWFGGFNYWGQGTLVTVSS heavy 2: not shown light: not shown	0.1 nM	0.13 nM	0.04 nM	0.05 nM	–	–	2 nM	0.006 nM	0.009 nM	0.003 nM	0.002 nM	1.6 nM	0.1 nM	–	–	0.5 nM	0.3 to 0.7 nM
